T1: mCD1d (Mus musculus, UniProt P11609)
T1 sequence (P11609 22-305 limits assumed): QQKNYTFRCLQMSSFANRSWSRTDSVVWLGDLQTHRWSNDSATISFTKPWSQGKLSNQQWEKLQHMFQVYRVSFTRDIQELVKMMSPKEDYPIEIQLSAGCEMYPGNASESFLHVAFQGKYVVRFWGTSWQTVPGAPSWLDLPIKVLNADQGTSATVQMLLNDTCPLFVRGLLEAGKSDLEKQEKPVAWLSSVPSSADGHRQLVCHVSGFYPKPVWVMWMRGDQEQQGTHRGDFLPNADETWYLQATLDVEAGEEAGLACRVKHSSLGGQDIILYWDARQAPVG
T1 sequence (P01887 21-119 partner): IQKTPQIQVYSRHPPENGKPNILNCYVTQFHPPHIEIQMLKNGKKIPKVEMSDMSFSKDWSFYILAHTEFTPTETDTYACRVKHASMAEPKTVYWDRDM


Experiments:
[1] = test system: iNKT cells; experiment: In vivo activation of iNKT cells by i.p. glycolipid injection; serum cytokines by capture ELISA; details: C57BL/6 mice, i.p. 4 nmoles
Text: (§1) Figure 1 Synthetic Analogs of αGalCer (A) Structures and nomenclature of iNKT cell-activating αGalCer analogs used in this study. The nomenclature used in most cases is based on the identity of the amide-linked acyl group in the ceramide moiety. Acyl carbon chain length and number of unsaturations are indicated by the names of most analogs, with exceptions being OCH (which has a C24 saturated acyl chain) and the compounds with amide-linked prostaglandin B1 (PGB1) or 4-fluorophenyl acetate (4FPA) groups. The phytosphingosine base is 18 carbons in length for all analogs except OCH, which has a nine-carbon base. (B) Hybridoma DN3A4.1-2 (Vβ8.2^+) was stimulated with each of the αGalCer analogs at a range of concentrations with JAWS II cells as APCs, and the amounts of IL-2 production were analyzed. Potencies of glycolipids are shown as 1/EC50 (as defined in Figure S1). […] Concentrations of IFN-γ, IL-4, and IL-12p70 were determined in serum by capture ELISA. “ND” stands for not detected. […]
(§2) For in vitro stimulation, murine iNKT hybridomas at 5 × 10^4 cells/well in 96-well plates were stimulated with an equal number of either JAWS II cells or transfected A20 cells in complete medium with glycolipids for 12 hr at 37°C, and levels of murine IL-2 secretion were determined. […] Subsequently the levels of IL-4, IL-13, and IFN-γ in culture supernatants were quantified by capture ELISA. […]

[2] = test system: BALB/c splenocytes; experiment: Mouse splenocyte stimulation with glycolipids, IL-4, IL-13 and IFN-γ in supernatants; assay type: cell-based; details: 48 hr
Text: as §1, §2

[3] = target: T1, mCD1d; experiment: In vitro CD1d loading assay with immobilized mCD1d, saposins or Triton X-100, DN32.D3 hybridoma IL-2 readout; assay type: biochemical; details: saposin 10 μg/ml, glycolipid αGalCer-C26:0
Experimental: Figure 5 Lack of Detergent-like Cofactor Dependence of Th2 Cell-Type Cytokine-Biasing αGalCer Analogs (A) Glycolipids were incubated for 24 hr at 37°C with murine CD1d proteins in the absence (top row) or presence (bottom row) of 0.05% Triton X-100. The resulting complexes were assembled as tetramers and used for staining mouse iNKT hybridoma DN3A4.1-2. The dashed line histograms show background staining with unloaded tetramers, and the bold histograms show staining with glycolipid loaded tetramers. (B) The same analysis as in (A) except with human CD1d tetramers, which were also used for DN3A4.1-2 staining. (C) Glycolipids at various concentrations were incubated with immobilized mCD1d protein for 2 hr in pH 7.0 or pH 5.0 buffers with no additives (medium) or in the same buffers containing the indicated purified recombinant saposins (10 μg/ml) or Triton X-100 (0.05%). After washing, DN32.D3 iNKT hybridoma cells were added and supernatant concentrations of IL-2 were determined after an additional 14 hr of incubation. All results shown (A, B, and C) were representative of at least two independent experiments.
To extend these observations to a more physiological model, we tested the effects of purified recombinant saposin A, B, C, and D proteins on loading of αGalCer analogs.
Recombinant murine CD1d proteins at 4 μg/ml in 50 μl PBS were coated on the surfaces of microtiter plate wells for 2 hr at 37°C and then washed with PBS for removal of unbound proteins. Subsequently, various concentrations of glycolipids in 0.1 M sodium phosphate buffer (pH 7.0) or 0.1 M sodium citrate buffer (pH 5.0) containing 150 mM NaCl were incubated with or without 0.05% Triton X-100 or recombinant purified human saposins A, B, C, or D at 10 μg/ml for another 2 hr at 37°C. Saposins were produced and purified as described ([Yuan et al., 2007]). After extensive washing with PBS and media, 5 × 10^4 murine iNKT hybridoma DN32.D3 cells were added in 200 μl of complete medium and incubated at 37°C for 14 hr. Supernatants were analyzed for murine IL-2 by capture ELISA.

| activity of purified saposin in enabling loading of αGalCer-C26:0 onto mCD1d [3] | Molecule | activity in vivo (serum cytokines) [1] | Th2 cell-type cytokine bias (ratios of IL-13 or IL-4 to IFN-γ) [2] |
| --- | --- | --- | --- |
| minimal or no activity | saposin C: recombinant purified human saposin C (protein, UniProt P07602 311-390, looked up, Saposin-C) Saposin-C: SDVYCEVCEFLVKEVTKLIDNNKTEKEILDAFDKMCSKLPKSLSEECQEVVDTYGSSILSILLEEVSPELVCSMLHLCSG |  |  |
| minimal or no activity | saposin D: recombinant purified human saposin D (protein, UniProt P07602 405-486, looked up, Saposin-D) Saposin-D: DGGFCEVCKKLVGYLDRNLEKNSTKQEILAALEKGCSFLPDPYQKQCDQFVAEYEPVLIEILVEVMDPSFVCLKIGACPSAH |  |  |

The next lines start with the molecule.

| Molecule | activity of purified saposin in enabling loading of αGalCer-C26:0 onto mCD1d [3] | activity in vivo (serum cytokines) [1] | Th2 cell-type cytokine bias (ratios of IL-13 or IL-4 to IFN-γ) [2] |
| --- | --- | --- | --- |
| CCCCCCCCCCCCCCC(O)C(O)C(COC1OC(CO)C(O)C(O)C1O)NC(=O)Cc1ccc(F)cc1 (stereo not drawn) [αGalCer-4FPA] |  | minimal activity in vivo | pronounced Th2 cell-type biasing effect in vitro |
| saposin A: recombinant purified human saposin A (protein, UniProt P07602 60-142, looked up, Saposin-A) Saposin-A: SLPCDICKDVVTAAGDMLKDNATEEEILVYLEKTCDWLPKPNMSASCKEIVDSYLPVILDIIKGEMSRPGEVCSALNLCESLQ | minimal or no activity |  |  |
| Saposin B: recombinant purified human saposin B, lipid transfer protein (protein, UniProt P07602 195-273, looked up, Saposin-B, recombinant purified human saposin B, lipid transfer protein) Saposin-B: GDVCQDCIQMVTDIQTAVRTNSTFVQALVEHVKEECDRLGPGMADICKNYISQYSEIAIQMMMHMQPKEICALVGFCDE | strongly active |  |  |

From article PMC2719696, “Kinetics and Cellular Site of Glycolipid Loading Control the Outcome of Natural Killer T Cell Activation” (Immunity, 2009)
